Tests used:
[1] = molecular target: TCR Vβ17 on T cells of PBMCs; experiment: flow cytometry on PBMCs, percent of cells stained
[2] = molecular target: Vβ17 (on cells expressing Vβ17); experiment: cell-based or functional assay
Sequence of Vβ17 (on cells expressing Vβ17) (A0A075B6N1 22-114): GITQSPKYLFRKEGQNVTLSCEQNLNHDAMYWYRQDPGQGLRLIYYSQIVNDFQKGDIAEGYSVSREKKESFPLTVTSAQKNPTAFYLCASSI

Sequence of TCR Vβ17 on T cells of PBMCs (A0A075B6N1 22-114): as above

| PBMC binding (%) [1] [%] | Cell Internalization (EC50) [2] [nM] | Substance |
| --- | --- | --- |
| 0.13 |  | Goat anti mouse IgG PE, Southern Biotech, Cat: 1030-09 (antibody) |
| 3.4 | < 0.07 | Anti TCR Vβ17-PE Ab, Beckman Coulter, Cat: IM2048 (antibody) |

Reference: patent US20250092134A1
